Drawing on the Human Domainome abundance scans (Beltran et al. 2025), this text covers abundance fitness for 45 variants.

Sequences and labels used below:
B1: RUN and FYVE domain-containing protein 1, residues 639 to 698; numbered along this chain, Q96T51 (parent)
chain: WLKDDEATHCRQCEKEFSISRRKHHCRNCGHIFCNTCSSNELALPSYPKPVRVCDSCHTL

± gives the uncertainty stated by the source.

Variants of B1 are the subject of the series. Briefly: abundance fitness (aPCA) (normalised: wild type 0, dead -1); higher = more abundant; growth selection in yeast, the domain comes from the species named. To be noted: Homo sapiens.
Consider WLKDDEATHCRQCEKEFSISRRKHHCRNCGHIFCCTCSSNELALPSYPKPVRVCDSCHTL [N35C], for which the abundance fitness turned out to be 0.237 ± 0.051.

As for WLKDDEATHCRQCEKEFSISRRKHHCRNCGHIFCGTCSSNELALPSYPKPVRVCDSCHTL [N35G], the abundance fitness came to 0.436 ± 0.039.

Take WLKDDEATHCRQCEKEFSISRRKHHCRNCGHIFCVTCSSNELALPSYPKPVRVCDSCHTL [N35V]: the abundance fitness amounted to 0.255 ± 0.034.

For the variant WLKDDEATHCRQCEKEFSISRRKHHCRNCGHIFCMTCSSNELALPSYPKPVRVCDSCHTL [N35M], the abundance fitness stood at 0.191 ± 0.039.

Consider WLKDDEATHCRQCEKEFSISRRKHHCRNCGHIFCATCSSNELALPSYPKPVRVCDSCHTL [N35A], for which the abundance fitness was 0.341 ± 0.037.

As for WLKDDEATHCRQCEKEFSISRRKHHCRNCGHIFCETCSSNELALPSYPKPVRVCDSCHTL [N35E], the abundance fitness was determined as 0.331 ± 0.045.

As for WLKDDEATHCRQCEKEFSISRRKHHCRNCGHIFCQTCSSNELALPSYPKPVRVCDSCHTL [N35Q], the abundance fitness is 0.173 ± 0.058.

Consider WLKDDEATHCRQCEKEFSISRRKHHCRNCGHIFCRTCSSNELALPSYPKPVRVCDSCHTL [N35R], for which the abundance fitness worked out at 0.172 ± 0.034.

Turning to WLKDDEATHCRQCEKEFSISRRKHHCRNCGHIFCWTCSSNELALPSYPKPVRVCDSCHTL [N35W], the abundance fitness turned out to be 0.088 ± 0.04.

For WLKDDEATHCRQCEKEFSISRRKHHCRNCGHIFCSTCSSNELALPSYPKPVRVCDSCHTL [N35S], the abundance fitness came out at 0.23 ± 0.038.

For the variant WLKDDEATHCRQCEKEFSISRRKHHCRNCGHIFCITCSSNELALPSYPKPVRVCDSCHTL [N35I], the abundance fitness amounted to 0.047 ± 0.066.

Consider WLKDDEATHCRQCEKEFSISRRKHHCRNCGHIFCTTCSSNELALPSYPKPVRVCDSCHTL [N35T], for which the abundance fitness is 0.22 ± 0.037.

Consider WLKDDEATHCRQCEKEFSISRRKHHCRNCGHIFCLTCSSNELALPSYPKPVRVCDSCHTL [N35L], for which the abundance fitness is 0.215 ± 0.034.

For the variant WLKDDEATHCRQCEKEFSISRRKHHCRNCGHIFCPTCSSNELALPSYPKPVRVCDSCHTL [N35P], the abundance fitness was 0.233 ± 0.051.

As for WLKDDEATHCRQCEKEFSISRRKHHCRNCGHIFCNTCSRNELALPSYPKPVRVCDSCHTL [S39R], the abundance fitness is -0.011 ± 0.039.

With WLKDDEATHCRQCEKEFSISRRKHHCRNCGHIFCNTCSQNELALPSYPKPVRVCDSCHTL [S39Q], the abundance fitness was 0.091 ± 0.051.

Take WLKDDEATHCRQCEKEFSISRRKHHCRNCGHIFCNTCSENELALPSYPKPVRVCDSCHTL [S39E]: the abundance fitness came to 0.079 ± 0.055.

For the variant WLKDDEATHCRQCEKEFSISRRKHHCRNCGHIFCNTCSPNELALPSYPKPVRVCDSCHTL [S39P], the abundance fitness was -0.251 ± 0.061.

Take WLKDDEATHCRQCEKEFSISRRKHHCRNCGHIFCNTCSCNELALPSYPKPVRVCDSCHTL [S39C]: the abundance fitness was -1.14 ± 0.23.

With WLKDDEATHCRQCEKEFSISRRKHHCRNCGHIFCNTCSGNELALPSYPKPVRVCDSCHTL [S39G], the abundance fitness is 0.185 ± 0.034.

Consider WLKDDEATHCRQCEKEFSISRRKHHCRNCGHIFCNTCSDNELALPSYPKPVRVCDSCHTL [S39D], for which the abundance fitness is 0.128 ± 0.07.

With WLKDDEATHCRQCEKEFSISRRKHHCRNCGHIFCNTCSINELALPSYPKPVRVCDSCHTL [S39I], the abundance fitness is -0.229 ± 0.067.

WLKDDEATHCRQCEKEFSISRRKHHCRNCGHIFCNTCSNNELALPSYPKPVRVCDSCHTL [S39N]: the abundance fitness is -0.036 ± 0.071.

For WLKDDEATHCRQCEKEFSISRRKHHCRNCGHIFCNTCSTNELALPSYPKPVRVCDSCHTL [S39T], the abundance fitness is 0.084 ± 0.039.

As to WLKDDEATHCRQCEKEFSISRRKHHCRNCGHIFCNTCSANELALPSYPKPVRVCDSCHTL [S39A], the abundance fitness stood at 0.14 ± 0.041.

Consider WLKDDEATHCRQCEKEFSISRRKHHCRNCGHIFCNTCSHNELALPSYPKPVRVCDSCHTL [S39H], for which the abundance fitness was -0.421 ± 0.09.

Consider WLKDDEATHCRQCEKEFSISRRKHHCRNCGHIFCNTCSFNELALPSYPKPVRVCDSCHTL [S39F], for which the abundance fitness was -0.305 ± 0.11.

With WLKDDEATHCRQCEKEFSISRRKHHCRNCGHIFCNTCSLNELALPSYPKPVRVCDSCHTL [S39L], the abundance fitness was -0.102 ± 0.039.

On to WLKDDEATHCRQCEKEFSISRRKHHCRNCGHIFCNTCGSNELALPSYPKPVRVCDSCHTL [S38G], for which the abundance fitness is -0.067 ± 0.053.

Turning to WLKDDEATHCRQCEKEFSISRRKHHCRNCGHIFCNTCWSNELALPSYPKPVRVCDSCHTL [S38W], the abundance fitness is -0.282 ± 0.1.

For the variant WLKDDEATHCRQCEKEFSISRRKHHCRNCGHIFCNTCYSNELALPSYPKPVRVCDSCHTL [S38Y], the abundance fitness is -0.633 ± 0.065.

Consider WLKDDEATHCRQCEKEFSISRRKHHCRNCGHIFCNTCRSNELALPSYPKPVRVCDSCHTL [S38R], for which the abundance fitness was -0.122 ± 0.088.

With WLKDDEATHCRQCEKEFSISRRKHHCRNCGHIFCNTCPSNELALPSYPKPVRVCDSCHTL [S38P], the abundance fitness is -0.727 ± 0.1.

As to WLKDDEATHCRQCEKEFSISRRKHHCRNCGHIFCNTCTSNELALPSYPKPVRVCDSCHTL [S38T], the abundance fitness was -0.057 ± 0.047.

Regarding WLKDDEATHCRQCEKEFSISRRKHHCRNCGHIFCNTCCSNELALPSYPKPVRVCDSCHTL [S38C], the abundance fitness was -0.029 ± 0.055.

WLKDDEATHCRQCEKEFSISRRKHHCRNCGHIFCNTCVSNELALPSYPKPVRVCDSCHTL [S38V]: the abundance fitness is -0.008 ± 0.057.

In the case of WLKDDEATHCRQCEKEFSISRRKHHCRNCGHIFCNTCHSNELALPSYPKPVRVCDSCHTL [S38H], the abundance fitness was -0.545 ± 0.066.

As for WLKDDEATHCRQCEKEFSISRRKHHCRNCGHIFCNTCKSNELALPSYPKPVRVCDSCHTL [S38K], the abundance fitness was -0.589 ± 0.1.

WLKDDEATHCRQCEKEFSISRRKHHCRNCGHIFCNTCESNELALPSYPKPVRVCDSCHTL [S38E]: the abundance fitness was -0.954 ± 0.44.

Consider WLKDDEATHCRQCEKEFSISRRKHHCRNCGHIFCNTCMSNELALPSYPKPVRVCDSCHTL [S38M], for which the abundance fitness was -0.425 ± 0.11.

Consider WLKDDEATHCRQCEKEFSISRRKHHCRNCGHIFCNTCFSNELALPSYPKPVRVCDSCHTL [S38F], for which the abundance fitness is -0.594 ± 0.07.

In the case of WLKDDEATHCRQCEKEFSISRRKHHCRNCGHIFCNTCISNELALPSYPKPVRVCDSCHTL [S38I], the abundance fitness is -0.38 ± 0.056.

Consider WLKDDEATHCRQCEKEFSISRRKHHCRNCGHIFCNTCASNELALPSYPKPVRVCDSCHTL [S38A], for which the abundance fitness was 0.124 ± 0.077.

Take WLKDDEATHCRQCEKEFSISRRKHHCRNCGHIFCNTCDSNELALPSYPKPVRVCDSCHTL [S38D]: the abundance fitness is -0.665 ± 0.085.

As to WLKDDEATHCRQCEKEFSISRRKHHCRNCGHIFCNTCQSNELALPSYPKPVRVCDSCHTL [S38Q], the abundance fitness was -0.432 ± 0.13.
